For this test, the target named is T1, MLO-Y4 cell surface proteins (Mus musculus, UniProt E9Q9D8).
T1 construct: endogenous in cells; host or cells: MLO-Y4
T1 sequence (E9Q9D8 1-996): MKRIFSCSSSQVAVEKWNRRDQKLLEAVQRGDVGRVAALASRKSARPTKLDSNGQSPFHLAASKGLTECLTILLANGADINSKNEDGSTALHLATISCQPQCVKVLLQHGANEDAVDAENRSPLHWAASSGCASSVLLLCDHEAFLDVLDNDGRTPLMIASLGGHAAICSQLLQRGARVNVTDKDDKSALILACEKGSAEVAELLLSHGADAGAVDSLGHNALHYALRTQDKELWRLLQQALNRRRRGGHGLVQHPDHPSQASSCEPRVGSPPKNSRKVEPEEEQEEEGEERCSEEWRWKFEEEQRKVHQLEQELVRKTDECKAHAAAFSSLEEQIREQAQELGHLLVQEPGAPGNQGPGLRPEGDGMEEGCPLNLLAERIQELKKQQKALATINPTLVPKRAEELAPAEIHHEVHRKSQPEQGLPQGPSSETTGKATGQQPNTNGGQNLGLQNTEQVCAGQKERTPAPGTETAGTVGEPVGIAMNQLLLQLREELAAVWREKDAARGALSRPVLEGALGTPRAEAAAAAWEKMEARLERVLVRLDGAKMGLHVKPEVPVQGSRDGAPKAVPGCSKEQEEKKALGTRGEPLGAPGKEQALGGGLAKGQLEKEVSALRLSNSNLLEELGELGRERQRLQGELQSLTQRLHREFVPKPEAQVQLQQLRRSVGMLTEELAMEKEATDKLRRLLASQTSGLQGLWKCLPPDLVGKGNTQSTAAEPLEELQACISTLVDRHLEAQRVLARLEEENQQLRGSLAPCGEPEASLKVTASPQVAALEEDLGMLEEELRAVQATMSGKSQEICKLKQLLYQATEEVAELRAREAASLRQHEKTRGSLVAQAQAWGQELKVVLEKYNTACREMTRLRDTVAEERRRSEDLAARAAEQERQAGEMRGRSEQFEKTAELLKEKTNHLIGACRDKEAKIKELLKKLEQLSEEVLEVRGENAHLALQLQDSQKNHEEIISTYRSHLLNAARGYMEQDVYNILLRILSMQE
Put plainly: Crosslinking/co-immunoprecipitation/mass spectrometry (TMT quantitative proteomics) to identify irisin receptors. It is filed as binding. Particulars: co-precipitated protein Ankrd35 (E9Q9D8_MOUSE). A digest of the protocol: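 Relative protein abundance came from 6-plex TMT MS3 quantitation on an Orbitrap Fusion Lumos, after in-gel trypsin digestion of Coomassie-stained SDS-PAGE lanes. Input was a Ni-NTA pulldown (250 mM imidazole elution) of lysates from murine MLO-Y4 cells. These cells were treated on ice with His-tagged irisin or adipsin (10 nM, 20 min) in serum-free medium, then crosslinked with 1.5 mM DTSSP for 30 min.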

B1: irisin: secreted cleaved form of FNDC5; recombinant human/mouse irisin with C-terminal his tag produced in HEK293 cells (protein)
chain: DSPSAPVNVTVRHLKANSAVVSWDVLEDEVVIGFAISQQKKDVRMLRFIQEVNTTTRSCALWDLEEDTEYIVHVQAISIQGQSPASEPVLFKTPREAEKMASKNKDEVTMKE
modifications: left off: small tags and cut ends
notes: secreted cleaved form of FNDC5; recombinant human/mouse irisin with C-terminal his tag produced in HEK293 cells
B1: the TMT signal-to-noise ratio was determined as 3.32 and the “irisin/adipsin TMT signal-to-noise ratio” value turned out to be 0.011.
